Data published in US20250034212A1, “PEPTIDE” (PEPTIDREAM INC., priority 2021, published 2025).
Starred links: 1 amine or outer side, 2 acyl side, 3 side chain; linkers in the order of their positions; H or OH if unused. Positions of bridges follow the written chain, without caps; N, C: chain ends. Non-standard residues stand in square brackets, D forms with d. No end group written: not given here. KCOmeglumine = N6-(methyl-((2S,3R,4R,5R)-2,3,4,5,6-pentahydroxyhexyl)carbamoyl)-L-lysine, CN(C[C@H](O)[C@@H](O)[C@H](O)[C@H](O)CO)C(=O)NCCCC[C@H](N[*:1])C(=O)[*:2]; KCOpipzaa = N6-(4-(carboxymethyl)piperazine-1-carbonyl)-L-lysine, O=C(NCCCC[C@H](N[*:1])C(=O)[*:2])N1CCN(CC(=O)[*:3])CC1; Trp(7-aza) = N[C@@H](Cc1c[nH]c2ncccc12)C(=O)O; 1Nal = N[C@@H](Cc1cccc2ccccc12)C(=O)O; Gly(NCH2CH2Ph) = O=C(O)CNCCc1ccccc1; 4Pal = N[C@@H](Cc1ccncc1)C(=O)O

What was measured:
[1] = target: T1, recombinant human TGF-β1 (R&D systems) (human, UniProt P01137 279-390); assay: SPR, TGF-β1 immobilised, single cycle kinetics
T1 construct: Bought protein; immobilised on a CM3 chip (SPR) or on Dynabeads (ELISA), added to cells in the SBE reporter assay; also called TGF-β1 beads
Description: Subsequently, 50 μL of 60 mM EDC solution (Global Life Science Technologies Japan Co., Ltd.) and 50 μL of 650 mM NHS solution (Global Life Science Technologies Japan Co., Ltd.) were mixed. Next, the reaction was carried out at a flow rate of 10 μL/min for 420 seconds. Then, 150 μL of 0.2 μM TGF-β solution diluted in 10 mM acetic acid solution (pH 5.0) was prepared and reacted at a flow rate of 10 μL/min for 420 seconds to immobilize TGF-β on the CM3 sensor chip. TGF-β was human-derived TGF-β1 or β2 (recombinant human TGF-β1, 2) and was obtained from R&D systems. After immobilization, capping was performed by reacting with 1.0 M ethanolamine aqueous solution (Global Life Science Technologies Japan Co., Ltd.) at a flow rate of […] for 420 seconds.
A liquid prepared by dissolving each peptide at 10 mM in DMSO solution was diluted with running buffer to prepare a peptide-dissolved solution at a final concentration of 10 μM. Subsequently, 50 nM, 25 nM, 12.5 nM, 5 nM, and 2.5 nM peptide solutions were prepared. Using the above samples, the kinetics of each peptide against TGF-β was obtained by SPR measurement.
The kinetics evaluation model was Single Cycle Kinetics, and curve fitting was performed using Biacore T200 Evaluation Software Version 3.0 (Global Life Science Technologies Japan Co., Ltd.). The binding of various peptides to TGF-β was evaluated by performing least-squares curve fitting on the obtained sensorgram to calculate the KD value.

[2] = target: T1, recombinant human TGF-β1 (R&D systems); assay: cell-based or functional assay
[3] = target: T1, recombinant human TGF-β1 (R&D systems); assay: cell-based or functional assay; remark: listed apart in the source

T1 sequence (P01137 279-390 limits assumed): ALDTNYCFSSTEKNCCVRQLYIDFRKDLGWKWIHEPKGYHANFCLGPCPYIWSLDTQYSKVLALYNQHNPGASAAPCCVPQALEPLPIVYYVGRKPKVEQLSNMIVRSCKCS

B1: TGFb1_027 (peptide)
peptide: {CH2CO}-F[1Nal]VVNV[4Pal]DD[Gly(NCH2CH2Ph)]V[1Nal]YHECG-NH2
modifications: thioether N-16
SMILES: CC(C)[C@@H]1NC(=O)CN(CCc2ccccc2)C(=O)[C@H](CC(=O)O)NC(=O)[C@H](CC(=O)O)NC(=O)[C@H](Cc2ccncc2)NC(=O)[C@H](C(C)C)NC(=O)[C@H](CC(N)=O)NC(=O)[C@H](C(C)C)NC(=O)[C@H](C(C)C)NC(=O)[C@H](Cc2cccc3ccccc23)NC(=O)[C@H](Cc2ccccc2)NC(=O)CSC[C@@H](C(=O)NCC(N)=O)NC(=O)[C@H](CCC(=O)O)NC(=O)[C@H](Cc2c[nH]cn2)NC(=O)[C@H](Cc2ccc(O)cc2)NC(=O)[C@H](Cc2cccc3ccccc23)NC1=O
notes: cyclic peptide; C-terminal G is a linker
[1]
  Kd: 1.11 nM
[2]
  SBE reporter % inhibition, peptide 0.062 nM: 2.53%
  SBE reporter % inhibition, peptide 0.185 nM: 9.14%
  SBE reporter % inhibition, peptide 0.56 nM: 28.4%
  SBE reporter % inhibition, peptide 1.7 nM: 59.4%
  SBE reporter % inhibition, peptide 5.0 nM: 84.9%
  SBE reporter % inhibition, peptide 15.0 nM: 95.5%

B2: TGFb1_028 (peptide)
peptide: {CH2CO}-F[1Nal]V[KCOmeglumine]NV[4Pal]DD[Gly(NCH2CH2Ph)]V[1Nal]YHECG-NH2
modifications: thioether N-16
SMILES: CC(C)[C@@H]1NC(=O)CN(CCc2ccccc2)C(=O)[C@H](CC(=O)O)NC(=O)[C@H](CC(=O)O)NC(=O)[C@H](Cc2ccncc2)NC(=O)[C@H](C(C)C)NC(=O)[C@H](CC(N)=O)NC(=O)[C@H](CCCCNC(=O)N(C)C[C@H](O)[C@@H](O)[C@H](O)[C@H](O)CO)NC(=O)[C@H](C(C)C)NC(=O)[C@H](Cc2cccc3ccccc23)NC(=O)[C@H](Cc2ccccc2)NC(=O)CSC[C@@H](C(=O)NCC(N)=O)NC(=O)[C@H](CCC(=O)O)NC(=O)[C@H](Cc2c[nH]cn2)NC(=O)[C@H](Cc2ccc(O)cc2)NC(=O)[C@H](Cc2cccc3ccccc23)NC1=O
notes: as for B1
[1]
  Kd: 1.31 nM
[2]
  SBE reporter % inhibition, peptide 0.062 nM: 0.94%
  SBE reporter % inhibition, peptide 0.185 nM: 6.17%
  SBE reporter % inhibition, peptide 0.56 nM: 20.4%
  SBE reporter % inhibition, peptide 1.7 nM: 47.6%
  SBE reporter % inhibition, peptide 5.0 nM: 73.9%
  SBE reporter % inhibition, peptide 15.0 nM: 91.7%

B3: TGFb1_009 (peptide)
peptide: {CH2CO}-F[1Nal]VVNV[4Pal]DD[Gly(NCH2CH2Ph)]V[1Nal][4Pal]HVCG
modifications: thioether N-16; not fully specified (C-terminus)
notes: as for B1
[1]
  Kd: 0.58 nM
[3]
  SBE reporter % inhibition, peptide 0.075 nM: 2.7%
  SBE reporter % inhibition, peptide 0.75 nM: 53%
  SBE reporter % inhibition, peptide 7.5 nM: 94.8%
  SBE reporter % inhibition, peptide 75.0 nM: 99.6%

B4: TGFb1_011 (peptide)
peptide: {CH2CO}-F[1Nal]VVNV[4Pal]D[KCOpipzaa][Gly(NCH2CH2Ph)]V[1Nal]YHVCG-NH2
modifications: thioether N-16
SMILES: CC(C)[C@@H]1NC(=O)CN(CCc2ccccc2)C(=O)[C@H](CCCCNC(=O)N2CCN(CC(=O)O)CC2)NC(=O)[C@H](CC(=O)O)NC(=O)[C@H](Cc2ccncc2)NC(=O)[C@H](C(C)C)NC(=O)[C@H](CC(N)=O)NC(=O)[C@H](C(C)C)NC(=O)[C@H](C(C)C)NC(=O)[C@H](Cc2cccc3ccccc23)NC(=O)[C@H](Cc2ccccc2)NC(=O)CSC[C@@H](C(=O)NCC(N)=O)NC(=O)[C@H](C(C)C)NC(=O)[C@H](Cc2c[nH]cn2)NC(=O)[C@H](Cc2ccc(O)cc2)NC(=O)[C@H](Cc2cccc3ccccc23)NC1=O
notes: as for B1
[1]
  Kd: 0.62 nM
[3]
  SBE reporter % inhibition, peptide 0.075 nM: 6.1%
  SBE reporter % inhibition, peptide 0.75 nM: 76.3%
  SBE reporter % inhibition, peptide 7.5 nM: 97.9%
  SBE reporter % inhibition, peptide 75.0 nM: 100%

B5: TGFb1_014 (peptide)
peptide: {CH2CO}-F[1Nal]V[KCOmeglumine]NV[4Pal]DD[Gly(NCH2CH2Ph)]V[1Nal]YHVCG-NH2
modifications: thioether N-16
SMILES: CC(C)[C@@H]1NC(=O)CN(CCc2ccccc2)C(=O)[C@H](CC(=O)O)NC(=O)[C@H](CC(=O)O)NC(=O)[C@H](Cc2ccncc2)NC(=O)[C@H](C(C)C)NC(=O)[C@H](CC(N)=O)NC(=O)[C@H](CCCCNC(=O)N(C)C[C@H](O)[C@@H](O)[C@H](O)[C@H](O)CO)NC(=O)[C@H](C(C)C)NC(=O)[C@H](Cc2cccc3ccccc23)NC(=O)[C@H](Cc2ccccc2)NC(=O)CSC[C@@H](C(=O)NCC(N)=O)NC(=O)[C@H](C(C)C)NC(=O)[C@H](Cc2c[nH]cn2)NC(=O)[C@H](Cc2ccc(O)cc2)NC(=O)[C@H](Cc2cccc3ccccc23)NC1=O
notes: as for B1
[1]
  Kd: 0.66 nM
[3]
  SBE reporter % inhibition, peptide 0.075 nM: 0%
  SBE reporter % inhibition, peptide 0.75 nM: 64.8%
  SBE reporter % inhibition, peptide 7.5 nM: 97.2%
  SBE reporter % inhibition, peptide 75.0 nM: 98.8%

B6: TGFb1_015 (peptide)
peptide: {CH2CO}-F[1Nal]VVNV[4Pal]D[KCOmeglumine][Gly(NCH2CH2Ph)]V[1Nal]YHVCG-NH2
modifications: thioether N-16
SMILES: CC(C)[C@@H]1NC(=O)CN(CCc2ccccc2)C(=O)[C@H](CCCCNC(=O)N(C)C[C@H](O)[C@@H](O)[C@H](O)[C@H](O)CO)NC(=O)[C@H](CC(=O)O)NC(=O)[C@H](Cc2ccncc2)NC(=O)[C@H](C(C)C)NC(=O)[C@H](CC(N)=O)NC(=O)[C@H](C(C)C)NC(=O)[C@H](C(C)C)NC(=O)[C@H](Cc2cccc3ccccc23)NC(=O)[C@H](Cc2ccccc2)NC(=O)CSC[C@@H](C(=O)NCC(N)=O)NC(=O)[C@H](C(C)C)NC(=O)[C@H](Cc2c[nH]cn2)NC(=O)[C@H](Cc2ccc(O)cc2)NC(=O)[C@H](Cc2cccc3ccccc23)NC1=O
notes: as for B1
[1]
  Kd: 0.59 nM
[3]
  SBE reporter % inhibition, peptide 0.075 nM: 0%
  SBE reporter % inhibition, peptide 0.75 nM: 76.9%
  SBE reporter % inhibition, peptide 7.5 nM: 98.7%
  SBE reporter % inhibition, peptide 75.0 nM: 98.4%

B7: TGFb1_003 (peptide)
peptide: {CH2CO}-FWVVNVYDD[Gly(NCH2CH2Ph)]V[1Nal]YHVCG
modifications: thioether N-16
notes: as for B1
[1]
  Kd: 0.72 nM
[3]
  SBE reporter % inhibition, peptide 0.075 nM: 1.6%
  SBE reporter % inhibition, peptide 0.75 nM: 65.2%
  SBE reporter % inhibition, peptide 7.5 nM: 97.3%
  SBE reporter % inhibition, peptide 75.0 nM: 98.8%

B8: TGFb1_016 (peptide)
peptide: {CH2CO}-F[1Nal]VVNV[4Pal]DD[Gly(NCH2CH2Ph)]V[1Nal]YH[KCOmeglumine]CG-NH2
modifications: thioether N-16
SMILES: CC(C)[C@@H]1NC(=O)CN(CCc2ccccc2)C(=O)[C@H](CC(=O)O)NC(=O)[C@H](CC(=O)O)NC(=O)[C@H](Cc2ccncc2)NC(=O)[C@H](C(C)C)NC(=O)[C@H](CC(N)=O)NC(=O)[C@H](C(C)C)NC(=O)[C@H](C(C)C)NC(=O)[C@H](Cc2cccc3ccccc23)NC(=O)[C@H](Cc2ccccc2)NC(=O)CSC[C@@H](C(=O)NCC(N)=O)NC(=O)[C@H](CCCCNC(=O)N(C)C[C@H](O)[C@@H](O)[C@H](O)[C@H](O)CO)NC(=O)[C@H](Cc2c[nH]cn2)NC(=O)[C@H](Cc2ccc(O)cc2)NC(=O)[C@H](Cc2cccc3ccccc23)NC1=O
notes: as for B1
[1]
  Kd: 0.97 nM
[3]
  SBE reporter % inhibition, peptide 0.075 nM: 6.1%
  SBE reporter % inhibition, peptide 0.75 nM: 61%
  SBE reporter % inhibition, peptide 7.5 nM: 97.6%
  SBE reporter % inhibition, peptide 75.0 nM: 100%

B9: TGFb1_017 (peptide)
peptide: {CH2CO}-F[Trp(7-aza)]VVNV[4Pal]D[KCOpipzaa][Gly(NCH2CH2Ph)]V[1Nal]YHVCG-NH2
modifications: thioether N-16
SMILES: CC(C)[C@@H]1NC(=O)CN(CCc2ccccc2)C(=O)[C@H](CCCCNC(=O)N2CCN(CC(=O)O)CC2)NC(=O)[C@H](CC(=O)O)NC(=O)[C@H](Cc2ccncc2)NC(=O)[C@H](C(C)C)NC(=O)[C@H](CC(N)=O)NC(=O)[C@H](C(C)C)NC(=O)[C@H](C(C)C)NC(=O)[C@H](Cc2c[nH]c3ncccc23)NC(=O)[C@H](Cc2ccccc2)NC(=O)CSC[C@@H](C(=O)NCC(N)=O)NC(=O)[C@H](C(C)C)NC(=O)[C@H](Cc2c[nH]cn2)NC(=O)[C@H](Cc2ccc(O)cc2)NC(=O)[C@H](Cc2cccc3ccccc23)NC1=O
notes: as for B1
[1]
  Kd: 1.07 nM
[3]
  SBE reporter % inhibition, peptide 0.075 nM: 21.7%
  SBE reporter % inhibition, peptide 0.75 nM: 60.2%
  SBE reporter % inhibition, peptide 7.5 nM: 97.2%
  SBE reporter % inhibition, peptide 75.0 nM: 100%

B10: TGFb1_018 (peptide)
peptide: {CH2CO}-F[Trp(7-aza)]VVNV[4Pal]D[KCOmeglumine][Gly(NCH2CH2Ph)]V[1Nal]YHVCG-NH2
modifications: thioether N-16
SMILES: CC(C)[C@@H]1NC(=O)CN(CCc2ccccc2)C(=O)[C@H](CCCCNC(=O)N(C)C[C@H](O)[C@@H](O)[C@H](O)[C@H](O)CO)NC(=O)[C@H](CC(=O)O)NC(=O)[C@H](Cc2ccncc2)NC(=O)[C@H](C(C)C)NC(=O)[C@H](CC(N)=O)NC(=O)[C@H](C(C)C)NC(=O)[C@H](C(C)C)NC(=O)[C@H](Cc2c[nH]c3ncccc23)NC(=O)[C@H](Cc2ccccc2)NC(=O)CSC[C@@H](C(=O)NCC(N)=O)NC(=O)[C@H](C(C)C)NC(=O)[C@H](Cc2c[nH]cn2)NC(=O)[C@H](Cc2ccc(O)cc2)NC(=O)[C@H](Cc2cccc3ccccc23)NC1=O
notes: as for B1
[1]
  Kd: 1.42 nM
[3]
  SBE reporter % inhibition, peptide 0.075 nM: 22.2%
  SBE reporter % inhibition, peptide 0.75 nM: 61%
  SBE reporter % inhibition, peptide 7.5 nM: 97.6%
  SBE reporter % inhibition, peptide 75.0 nM: 99.9%
